Reference: IntAct's records for PubMed 18606998

B1: Transient receptor potential cation channel subfamily V member 5 (Oryctolagus cuniculus (Rabbit)), Q9XSM3 (parent)
chain: MGACPPKAKGPWAQLQKLLISWPVGEQDWEQYRDRVNMLQQERIRDSPLLQAAKENDLRLLKILLLNQSCDFQQRGAVGETALHVAALYDNLEAATLLMEAAPELAKEPALCEPFVGQTALHIAVMNQNLNLVRALLARGASVSARATGAAFRRSPHNLIYYGEHPLSFAACVGSEEIVRLLIEHGADIRAQDSLGNTVLHILILQPNKTFACQMYNLLLSYDEHSDHLQSLELVPNHQGLTPFKLAGVEGNTVMFQHLMQKRKHVQWTCGPLTSTLYDLTEIDSWGEELSFLELVVSSKKREARQILEQTPVKELVSFKWKKYGRPYFCVLASLYILYMICFTTCCIYRPLKLRDDNRTDPRDITILQQKLLQEAYVTHQDNIRLVGELVTVTGAVIILLLEIPDIFRVGASRYFGQTILGGPFHVIIITYASLVLLTMVMRLTNMNGEVVPLSFALVLGWCSVMYFARGFQMLGPFTIMIQKMIFGDLMRFCWLMAVVILGFASAFHITFQTEDPNNLGEFSDYPTALFSTFELFLTIIDGPANYSVDLPFMYCITYAAFAIIATLLMLNLFIAMMGDTHWRVAQERDELWRAQVVATTVMLERKMPRFLWPRSGICGYEYGLGDRWFLRVENHHDQNPLRVLRYVEAFKCSDKEDGQEQLSEKRPSTVESGMLSRASVAFQTPSLSRTTSQSSNSHRGWEILRRNTLGHLNLGLDLGEGDGEEVYHF

Variants of: B1
Settings: with leg1_human LGALS1, P09382
Chain of leg1_human LGALS1, P09382 (P09382 whole entry): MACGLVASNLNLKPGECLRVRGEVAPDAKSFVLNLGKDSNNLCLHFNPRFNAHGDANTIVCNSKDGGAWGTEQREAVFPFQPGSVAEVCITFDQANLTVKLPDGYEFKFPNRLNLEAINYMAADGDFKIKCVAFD

effect of a mutation on the interaction | Variant
disrupting interaction | N358Q
